This assay concerns the target isolated C-terminal domain (CTD, 213-288) of HIV-1 integrase (HIV-1). Description: SEC.

“isolated C-terminal domain (CTD, 213-288) of HIV-1 integrase (domain or fragment)”: the stoichiometry N came out at 2.

The values above are taken from PMC3203615.
